How the values were obtained:
[1] = system: COc1ccc2c(CC(=O)N[C@H](CCCNC(=N)N)C(=O)N3CCC[C@H]3C(=O)N[C@@H](CC(C)C)C(=O)NCC(=O)N[C@@H](CCCCOCc3ccccc3)C(=O)N[C@@H](CNc3ccc([N+](=O)[O-])cc3[N+](=O)[O-])C(=O)N[C@@H](C)C(=O)N[C@H](CCCNC(=N)N)C(=O)N[C@H](CCC(=O)O)C(=O)N[C@H](CCCNC(=N)N)C(N)=O)cc(=O)oc2c1; test: Km and kcat/Km of substrates with MMP-13; format: biochemical; conditions: other: substrate cleavage by MMP-13
[2] = system: COc1ccc2c(CC(=O)N[C@H](CCCNC(=N)N)C(=O)N3CCC[C@H]3C(=O)N[C@@H](CC(C)C)C(=O)NCC(=O)N[C@@H](CCCCOc3ccccc3)C(=O)N[C@@H](CNc3ccc([N+](=O)[O-])cc3[N+](=O)[O-])C(=O)N[C@@H](C)C(=O)N[C@H](CCCNC(=N)N)C(=O)N[C@H](CCC(=O)O)C(=O)N[C@H](CCCNC(=N)N)C(N)=O)cc(=O)oc2c1; test: Km and kcat/Km of substrates with MMP-13; format: biochemical; conditions: other: substrate cleavage by MMP-13
[3] = system: COc1ccc2c(CC(=O)N[C@@H](CCCNC(=N)N)C(=O)N3CCC[C@@H]3C(=O)N[C@@H](CC(C)C)C(=O)NCC(=O)N[C@@H](CC(C)C)C(=O)N[C@H](CNc3ccc([N+](=O)[O-])cc3[N+](=O)[O-])C(=O)N[C@@H](C)C(=O)N[C@H](CCCNC(=N)N)C(=O)N[C@@H](CCC(=O)O)C(=O)N[C@H](CCCNC(=N)N)C(N)=O)cc(=O)oc2c1; test: Km and kcat/Km of substrates with MMP-13; format: biochemical; conditions: other: substrate cleavage by MMP-13
[4] = system: COc1ccc2c(CC(=O)N[C@@H](CCCNC(=N)N)C(=O)N3CCC[C@H]3C(=O)N[C@@H](CC(C)C)C(=O)NCC(=O)N[C@@H](CCCCOCc3ccccc3)C(=O)N[C@@H](CNc3ccc([N+](=O)[O-])cc3[N+](=O)[O-])C(=O)N[C@@H](C)C(=O)N[C@@H](CCCNC(=N)N)C(=O)N[C@@H](CCC(=O)O)C(=O)N[C@@H](CCCNC(=N)N)C(N)=O)cc(=O)oc2c1; test: Km and kcat/Km of substrates with MMP-13; format: biochemical; conditions: other: substrate cleavage by MMP-13
[5] = system: COc1ccc2c(CC(=O)N[C@H](CCCNC(=N)N)C(=O)N3CCC[C@H]3C(=O)N[C@@H](CC(C)C)C(=O)NCC(=O)N[C@@H](CCCCOCc3ccccc3)C(=O)N[C@@H](CNc3ccc([N+](=O)[O-])cc3[N+](=O)[O-])C(=O)N[C@@H](C)C(=O)N[C@H](CCCNC(=N)N)C(=O)N[C@H](CCC(=O)O)C(=O)N[C@H](CCCNC(=N)N)C(N)=O)cc(=O)oc2c1; test: Km and kcat/Km of substrates with MMP-3; format: biochemical; conditions: other: substrate cleavage by MMP-3
[6] = system: COc1ccc2c(CC(=O)N[C@@H](CCCNC(=N)N)C(=O)N3CCC[C@@H]3C(=O)N[C@@H](CC(C)C)C(=O)NCC(=O)N[C@@H](CC(C)C)C(=O)N[C@H](CNc3ccc([N+](=O)[O-])cc3[N+](=O)[O-])C(=O)N[C@@H](C)C(=O)N[C@H](CCCNC(=N)N)C(=O)N[C@@H](CCC(=O)O)C(=O)N[C@H](CCCNC(=N)N)C(N)=O)cc(=O)oc2c1; test: Km and kcat/Km of substrates with MMP-3; format: biochemical; conditions: other: substrate cleavage by MMP-3
[7] = system: COc1ccc2c(CC(=O)N[C@@H](CCCNC(=N)N)C(=O)N3CCC[C@H]3C(=O)N[C@@H](CC(C)C)C(=O)NCC(=O)N[C@@H](CCCCOCc3ccccc3)C(=O)N[C@@H](CNc3ccc([N+](=O)[O-])cc3[N+](=O)[O-])C(=O)N[C@@H](C)C(=O)N[C@@H](CCCNC(=N)N)C(=O)N[C@@H](CCC(=O)O)C(=O)N[C@@H](CCCNC(=N)N)C(N)=O)cc(=O)oc2c1; test: Km and kcat/Km of substrates with MMP-3; format: biochemical; conditions: other: substrate cleavage by MMP-3
[8] = system: COc1ccc2c(CC(=O)N[C@H](CCCNC(=N)N)C(=O)N3CCC[C@H]3C(=O)N[C@@H](CC(C)C)C(=O)NCC(=O)N[C@@H](CCCCOCc3ccccc3)C(=O)N[C@@H](CNc3ccc([N+](=O)[O-])cc3[N+](=O)[O-])C(=O)N[C@@H](C)C(=O)N[C@H](CCCNC(=N)N)C(=O)N[C@H](CCC(=O)O)C(=O)N[C@H](CCCNC(=N)N)C(N)=O)cc(=O)oc2c1; test: purified protein, by the assay type; conditions: other: substrate cleavage by MMP-14
[9] = system: COc1ccc2c(CC(=O)N[C@H](CCCNC(=N)N)C(=O)N3CCC[C@H]3C(=O)N[C@@H](CC(C)C)C(=O)NCC(=O)N[C@@H](CCCCOc3ccccc3)C(=O)N[C@@H](CNc3ccc([N+](=O)[O-])cc3[N+](=O)[O-])C(=O)N[C@@H](C)C(=O)N[C@H](CCCNC(=N)N)C(=O)N[C@H](CCC(=O)O)C(=O)N[C@H](CCCNC(=N)N)C(N)=O)cc(=O)oc2c1; test: purified protein, by the assay type; conditions: other: substrate cleavage by MMP-14
[10] = system: COc1ccc2c(CC(=O)N[C@@H](CCCNC(=N)N)C(=O)N3CCC[C@@H]3C(=O)N[C@@H](CC(C)C)C(=O)NCC(=O)N[C@@H](CC(C)C)C(=O)N[C@H](CNc3ccc([N+](=O)[O-])cc3[N+](=O)[O-])C(=O)N[C@@H](C)C(=O)N[C@H](CCCNC(=N)N)C(=O)N[C@@H](CCC(=O)O)C(=O)N[C@H](CCCNC(=N)N)C(N)=O)cc(=O)oc2c1; test: purified protein, by the assay type; conditions: other: substrate cleavage by MMP-14
[11] = system: COc1ccc2c(CC(=O)N[C@@H](CCCNC(=N)N)C(=O)N3CCC[C@H]3C(=O)N[C@@H](CC(C)C)C(=O)NCC(=O)N[C@@H](CCCCOCc3ccccc3)C(=O)N[C@@H](CNc3ccc([N+](=O)[O-])cc3[N+](=O)[O-])C(=O)N[C@@H](C)C(=O)N[C@@H](CCCNC(=N)N)C(=O)N[C@@H](CCC(=O)O)C(=O)N[C@@H](CCCNC(=N)N)C(N)=O)cc(=O)oc2c1; test: purified protein, by the assay type; conditions: other: substrate cleavage by MMP-14
[12] = system: COc1ccc2c(CC(=O)N[C@H](CCCNC(=N)N)C(=O)N3CCC[C@H]3C(=O)N[C@@H](CC(C)C)C(=O)NCC(=O)N[C@@H](CCCCOCc3ccccc3)C(=O)N[C@@H](CNc3ccc([N+](=O)[O-])cc3[N+](=O)[O-])C(=O)N[C@@H](C)C(=O)N[C@H](CCCNC(=N)N)C(=O)N[C@H](CCC(=O)O)C(=O)N[C@H](CCCNC(=N)N)C(N)=O)cc(=O)oc2c1; test: Km and kcat/Km of substrates with MMP-8; format: biochemical; conditions: other: substrate cleavage by MMP-8
[13] = system: COc1ccc2c(CC(=O)N[C@H](CCCNC(=N)N)C(=O)N3CCC[C@H]3C(=O)N[C@@H](CC(C)C)C(=O)NCC(=O)N[C@@H](CCCCOc3ccccc3)C(=O)N[C@@H](CNc3ccc([N+](=O)[O-])cc3[N+](=O)[O-])C(=O)N[C@@H](C)C(=O)N[C@H](CCCNC(=N)N)C(=O)N[C@H](CCC(=O)O)C(=O)N[C@H](CCCNC(=N)N)C(N)=O)cc(=O)oc2c1; test: Km and kcat/Km of substrates with MMP-8; format: biochemical; conditions: other: substrate cleavage by MMP-8
[14] = system: COc1ccc2c(CC(=O)N[C@@H](CCCNC(=N)N)C(=O)N3CCC[C@@H]3C(=O)N[C@@H](CC(C)C)C(=O)NCC(=O)N[C@@H](CC(C)C)C(=O)N[C@H](CNc3ccc([N+](=O)[O-])cc3[N+](=O)[O-])C(=O)N[C@@H](C)C(=O)N[C@H](CCCNC(=N)N)C(=O)N[C@@H](CCC(=O)O)C(=O)N[C@H](CCCNC(=N)N)C(N)=O)cc(=O)oc2c1; test: Km and kcat/Km of substrates with MMP-8; format: biochemical; conditions: other: substrate cleavage by MMP-8
[15] = system: COc1ccc2c(CC(=O)N[C@@H](CCCNC(=N)N)C(=O)N3CCC[C@H]3C(=O)N[C@@H](CC(C)C)C(=O)NCC(=O)N[C@@H](CCCCOCc3ccccc3)C(=O)N[C@@H](CNc3ccc([N+](=O)[O-])cc3[N+](=O)[O-])C(=O)N[C@@H](C)C(=O)N[C@@H](CCCNC(=N)N)C(=O)N[C@@H](CCC(=O)O)C(=O)N[C@@H](CCCNC(=N)N)C(N)=O)cc(=O)oc2c1; test: Km and kcat/Km of substrates with MMP-8; format: biochemical; conditions: other: substrate cleavage by MMP-8

Sequence of MMP-8 (Homo sapiens) (chain, as listed by the source): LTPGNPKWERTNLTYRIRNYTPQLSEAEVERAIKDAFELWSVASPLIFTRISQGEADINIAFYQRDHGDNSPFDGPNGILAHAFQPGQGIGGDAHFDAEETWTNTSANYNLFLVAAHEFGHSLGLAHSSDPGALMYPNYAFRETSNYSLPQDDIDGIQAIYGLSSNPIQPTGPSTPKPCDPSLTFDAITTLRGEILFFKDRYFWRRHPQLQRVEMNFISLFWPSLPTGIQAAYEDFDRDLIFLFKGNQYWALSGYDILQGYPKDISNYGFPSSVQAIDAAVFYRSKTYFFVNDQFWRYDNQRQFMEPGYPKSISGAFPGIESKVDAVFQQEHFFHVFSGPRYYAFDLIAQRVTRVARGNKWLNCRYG
Sequence of MMP-3 (Homo sapiens) (chain, as listed by the source): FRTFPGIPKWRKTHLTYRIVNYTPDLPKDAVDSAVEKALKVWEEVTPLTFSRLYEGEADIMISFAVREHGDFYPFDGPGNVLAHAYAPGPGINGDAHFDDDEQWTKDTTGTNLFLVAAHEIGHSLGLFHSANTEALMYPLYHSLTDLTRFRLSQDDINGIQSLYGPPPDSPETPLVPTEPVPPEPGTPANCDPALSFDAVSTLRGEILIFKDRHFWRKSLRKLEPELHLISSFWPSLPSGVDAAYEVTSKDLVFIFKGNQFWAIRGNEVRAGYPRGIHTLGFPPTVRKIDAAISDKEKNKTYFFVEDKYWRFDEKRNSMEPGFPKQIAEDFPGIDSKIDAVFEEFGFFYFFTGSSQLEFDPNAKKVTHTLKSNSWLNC

MMP-13 (Homo sapiens)
Km [1]: 1.5 µM | kcat/Km [1]: 158 M^−1s^−1×10^4 | Km [2]: 1.2 µM | kcat/Km [2]: 293 M^−1s^−1×10^4 | Km [3]: 9 µM | kcat/Km [3]: 29.6 M^−1s^−1×10^4 | Km [4]: 0.9 µM | kcat/Km [4]: 424 M^−1s^−1×10^4

MMP-3 (Homo sapiens)
Km [5]: 28.9 µM | kcat/Km [5]: 0.16 M^−1s^−1×10^4 | Km [6]: 14 µM | kcat/Km [6]: 0.63 M^−1s^−1×10^4 | Km [7]: 85.9 µM | kcat/Km [7]: 0.48 M^−1s^−1×10^4

MMP-14 (Homo sapiens)
Km [8]: 23.7 µM | kcat/Km [8]: 5.09 M^−1s^−1×10^4 | Km [9]: 7.4 µM | kcat/Km [9]: 15.5 M^−1s^−1×10^4 | Km [10]: 27.2 µM | kcat/Km [10]: 4.1 M^−1s^−1×10^4 | Km [11]: 12 µM | kcat/Km [11]: 8.3 M^−1s^−1×10^4

MMP-8 (Homo sapiens)
Km [12]: 3.3 µM | kcat/Km [12]: 14.6 M^−1s^−1×10^4 | Km [13]: 4.4 µM | kcat/Km [13]: 52.2 M^−1s^−1×10^4 | Km [14]: 16.7 µM | kcat/Km [14]: 13.9 M^−1s^−1×10^4 | Km [15]: 9.1 µM | kcat/Km [15]: 17.9 M^−1s^−1×10^4
